T1: p110^RB, the hypophosphorylated form of Rb (Homo sapiens, UniProt P06400)
T1 construct: In proliferating cells, the Rb protein existed in several states of phosphorylation; endogenous in cells; host or cells: WR2E3 cells (inferred as the source of the extract put on the beads)
T1 sequence (P06400 1-928): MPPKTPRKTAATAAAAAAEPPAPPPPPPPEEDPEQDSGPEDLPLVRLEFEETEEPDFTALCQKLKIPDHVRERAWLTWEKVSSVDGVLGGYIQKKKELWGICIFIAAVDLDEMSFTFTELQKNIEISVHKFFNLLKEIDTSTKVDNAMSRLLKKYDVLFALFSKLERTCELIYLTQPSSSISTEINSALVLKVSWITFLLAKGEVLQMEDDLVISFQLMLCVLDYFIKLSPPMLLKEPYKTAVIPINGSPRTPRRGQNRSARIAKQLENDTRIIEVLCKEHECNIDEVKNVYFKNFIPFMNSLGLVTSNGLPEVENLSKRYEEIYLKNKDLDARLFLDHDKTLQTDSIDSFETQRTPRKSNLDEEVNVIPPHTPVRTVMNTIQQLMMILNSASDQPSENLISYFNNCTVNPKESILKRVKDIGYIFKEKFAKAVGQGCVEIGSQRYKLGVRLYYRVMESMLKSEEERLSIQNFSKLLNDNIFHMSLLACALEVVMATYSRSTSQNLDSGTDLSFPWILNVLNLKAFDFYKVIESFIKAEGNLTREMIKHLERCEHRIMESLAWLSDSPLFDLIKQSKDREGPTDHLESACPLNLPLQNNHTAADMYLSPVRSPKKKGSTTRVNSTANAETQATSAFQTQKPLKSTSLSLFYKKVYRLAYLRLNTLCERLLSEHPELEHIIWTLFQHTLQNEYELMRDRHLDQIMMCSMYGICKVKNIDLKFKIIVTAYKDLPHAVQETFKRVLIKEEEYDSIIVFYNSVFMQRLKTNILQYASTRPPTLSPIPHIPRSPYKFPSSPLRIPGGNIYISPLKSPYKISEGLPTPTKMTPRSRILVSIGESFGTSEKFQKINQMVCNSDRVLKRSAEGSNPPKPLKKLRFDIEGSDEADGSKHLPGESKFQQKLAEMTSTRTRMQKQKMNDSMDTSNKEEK

B1: Purα: sequence-specific single-stranded DNA-binding protein; GST-tagged, purified from bacteria in the EMSA (protein)
chain: MADRDSGSEQGGAALGSGGSLGHPGSGSGSGGGGGGGGGGGGSGGGGGGAPGGLQHETQELASKRVDIQNKRFYLDVKQNAKGRFLKIAEVGAGGNKSRLTLSMSVAVEFRDYLGDFIEHYAQLGPSQPPDLAQAQDEPRRALKSEFLVRENRKYYMDLKENQRGRFLRIRQTVNRGPGLGSTQGQTIALPAQGLIEFRDALAKLIDDYGVEEEPAELPEGTSLTVDNKRFFFDVGSNKYGVFMRVSEVKPTYRNSITVPYKVWAKFGHTFCKYSEEMKKIQEKQREKRAACEQLHQQQQQQQEETAAATLLLQGEEEGEED
modifications: left off: a dimerising Fc or GST
notes: GST-tagged, purified from bacteria in the EMSA
B2: Gst-Purα: GST fusion of Purα expressed in bacteria, bound to glutathione-agarose beads (protein)
chain: MADRDSGSEQGGAALGSGGSLGHPGSGSGSGGGGGGGGGGGGSGGGGGGAPGGLQHETQELASKRVDIQNKRFYLDVKQNAKGRFLKIAEVGAGGNKSRLTLSMSVAVEFRDYLGDFIEHYAQLGPSQPPDLAQAQDEPRRALKSEFLVRENRKYYMDLKENQRGRFLRIRQTVNRGPGLGSTQGQTIALPAQGLIEFRDALAKLIDDYGVEEEPAELPEGTSLTVDNKRFFFDVGSNKYGVFMRVSEVKPTYRNSITVPYKVWAKFGHTFCKYSEEMKKIQEKQREKRAACEQLHQQQQQQQEETAAATLLLQGEEEGEED
modifications: left off: a dimerising Fc or GST
B3: Purβ: Pur family protein, GST-tagged, purified from bacterial lysate (protein, UniProt Q96QR8 2-312, looked up)
Transcriptional regulator …: ADGDSGSERGGGGGPCGFQPASRGGGEQETQELASKRLDIQNKRFYLDVKQNAKGRFLKIAEVGAGGSKSRLTLSMAVAAEFRDSLGDFIEHYAQLGPSSPEQLAAGAEEGGGPRRALKSEFLVRENRKYYLDLKENQRGRFLRIRQTVNRGGGGFGAGPGPGGLQSGQTIALPAQGLIEFRDALAKLIDDYGGEDDELAGGPGGGAGGPGGGLYGELPEGTSITVDSKRFFFDVGCNKYGVFLRVSEVKPSYRNAITVPFKAWGKFGGAFCRYADEMKEIQERQRDKLYERRGGGSGGGEESEGEEVDED
modifications: GST tag
notes: Pur family protein, GST-tagged, purified from bacterial lysate

Legend:
[1] = tested on: ALS ssDNA (GGGGCC hexanucleotide repeat expanded at C9ORF72); assay: Electrophoretic mobility shift assay with ALS ssDNA; assay type: binding; conditions: for binding of ALS repeat (qualitative): DNA concentration courses
Procedure: Infrared oligonucleotides representing a GGGGCC hexanucleotide repeat expanded at C9ORF72 in ALS patients were custom ordered and are referred to as ALS ssDNA. 4% polyacrylamide gel electrophoresis was performed using IR-labeled oligonucleotides and imaged using the Li-Cor Odyssey IR imaging instrumentation and software.
Electrophoretic Mobility Shift Assay-Various combinations of Purα, Purβ, TZIP, and IR-labeled oligonucleotides were prepared in the 5× Johnson binding buffer (Bergemann, Andrew D and Johnson, Edward M (1992), The HeLa Pur Factor Binds Single-Stranded DNA at a Specific Element Conserved in Gene Flanking Regions and Origins of DNA Replication. Molecular and Cellular Biology, vol 12:3 (1257-1265), incorporated by reference herein in its entirety), adjusted to 5 mM DTT, 5 mM EDTA, and 0.5% Tween 20. 4% polyacrylamide gel electrophoresis was performed on samples and imaged with the Li-Cor Odyssey instrumentation and software. Densitometry was performed on the DNA concentration course experiments using the Li-Cor Odyssey software.
A Kd value obtained for Purβ was complex and not readily interpretable.

[2] = tested on: ras-transformed NIH3T3 cells; assay: Anchorage independent growth of ras-transformed NIH3T3 cells; assay type: cell-based; conditions: pBABE and pBKPurα transfected, puromycin selected
Source text: Purα also antagonizes colony formation and anchorage-independent growth related to ras-transformation of NIH3T3 cells. Ras-transformed cells were transfected with pBABE (empty vector) and either pBK (empty vector) or pBKPurα expression construct and selected for puromycin resistance. Referring to FIG. 4, panel A (pBABE) and panel B (pBABE+pBK) show anchorage independent cell growth.

NIH3T3 cells = assay: Purα injected into NIH3T3 cells at cell-cycle transition points; assay type: cell-based
Procedure: Purα was injected into NIH3T3 cells during various cell-cycle transition points to determine the effects of elevated Purα levels at different phases of the cell cycle. […] In FIG. 2, the clear bar represents dividing cells, the black bar represents non-dividing cells, and the shaded bar represents rapid cell death.

[3] = tested on: ras-transformed and non-transformed NIH3T3 cells; assay: Cell cycle progression (FACS DNA content) in cells stably transfected to over-express Purα; assay type: cell-based; conditions: two to five-fold elevated levels of Purα in stably transfected cell lines
Source text: Cells were released from a double thymidine block, which arrests cells upon entry to S phase, into normal growth medium. Samples were subjected to fluorescence-activated cell sorting to determine cellular DNA content.
Stably transfected or co-transfected pools and transfected clones are shown on the right.
A pool of ras-transformed cells were stably transfected or co-transfected with the following: (a) pBABE, an empty vector; (b) pBABE+pBK, both empty expression vectors; (c) pBABE+pBKPurα, to over-express Purα; (d) pBABE+pBKPurα^low to express Purα at a level near that of endogenous Purα; (e) pBABE+pBKPurα^high to express Purα at a level nearly 5-fold that of endogenous Purα; (f) pEBV, an empty expression vector (g) pEBVPurα to over-express Purα. 4N indicates completion of DNA synthesis.

[4] = target: T1, p110^RB, the hypophosphorylated form of Rb; assay: GST bead pull-down of Rb, anti-Rb blot; assay type: binding; conditions: protein on glutathione-agarose beads
Procedure: Rb was detected in extracts of monkey CV-1 cells complexed with Purα. These complexes can be immunoextracted from cell lysates using monoclonal antibodies to either Purα or Rb.
Proteins expressed in bacteria were bound to glutathione-agarose beads. Unfused GST was prepared in the same manner for use as a control. Beads containing equivalent amounts of each protein were used for each lane. Beads were collected, washed, and bound proteins were subjected to electrophoresis. The proteins were then blotted and probed with anti-Rb monoclonal antibody.
In contrast, binding of Rb to control GST alone was nil. IPP represents Rb immunoprecipitated from WR2E3 cells using rabbit polyclonal anti-Rb antibody. In proliferating cells, the Rb protein existed in several states of phosphorylation, the hypophosphorylated state, p110^RB, migrating more rapidly on SDS gels (lane 1).

[5] = tested on: FXS ssDNA (G-rich trinucleotide DNA repeats at FMR1); assay: Electrophoretic mobility shift assay with FXS ssDNA; assay type: binding
Source text: A GE Microspin GST purification module was used to purify GST-tagged Purα and Purβ from bacterial lysate. Polyacrylamide gel electrophoresis with SDS-Page gels and molecular markers were used to verify that GST, Purα, and Purβ were expressed and purified. Expressed proteins were detected using antibodies against Purα and Purβ, including monoclonal mouse anti-Pur antibody developed in Johnson laboratory (clone 10B12) and polyclonal antibody against Purβ (Abcam). Polyacrylamide gel electrophoresis with TBE buffer was used for gel-mobility shift assay. Infrared-labeled oligonucleotides representing G-rich trinucleotide DNA repeats at FMR1 in patients with Fragile X Syndrome (FXS) were custom ordered and are referred to herein as FXS ssDNA. Infrared-labeled oligonucleotide substrates in agarose and polyacrylamide gels were detected through the use of the Odyssey (LICOR) instrumentation and software. […] When Purα and Purβ are combined (FIG. 17), by increasing the amount of Purβ, the DNA is shifted more to the top of the gel. Therefore, there is more binding of the proteins to the DNA. […] In FIG. 19, TZIP enhances the mobility shift of ssDNA FXS in the presence of Purα.

Row | Molecule | binding of ALS repeat (qualitative) [1] | Kd ([1]; densitometry of DNA concentration course) | anchorage independent growth [2] | effect on cell cycle / cell fate (NIH3T3 cells; introduction of Purα in G1 phase) | effect on cell cycle / cell fate (NIH3T3 cells; introduction of Purα in later phases, such as G2-M phase) | S phase entry and progression [3] | binding to Rb [4] | binding / mobility shift of ssDNA FXS (qualitative) [5]
1 | B1 | strongly bind the ALS repeat in low concentrations | 16 nM | repressed anchorage independent growth | arrested cells at the G1-S boundary, causing programmed cell death | arrested, but did not prevent, complete replication of the genome | retarded entry into and progression through S phase |  | 
2 | B2 |  |  |  |  |  |  | bind exclusively to the hypophosphorylated forms of p110^RB | 
3 | B3 | bound the ALS repeat to a much smaller degree |  |  |  |  |  |  | does not shift the ssDNA FXS as strongly as Purα

Reference: patent US9896489B2, “Family of synthetic polynucleotide-binding peptides and uses thereof” (Eastern Virginia Medical School, priority 2012, dated 2018)
